The values below come from the RNAGym collection of RNA variant scans (doi:10.1073/pnas.2313332121).

First the molecules themselves.
B1: TPR t1 (parent)
chain: GACCAAUCUGCCCUCAGAGCUCGAGAACAUCUUCGGAUGCAGAGGAGGCAGGCUUCGGUGGCGCGAUAGCGCCAACGUCCUCAACCUCCAAUGCAUCCCACCACAUGAUGAUGCCUGAAGAGCCUUGGUUUUUUG

This data set covers variants of B1. Put plainly: polymerase ribozyme fitness, log enrichment relative to wild type (log ratio); higher = more active; in vitro selection for triplet polymerase activity. In outline:
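The heterodimeric triplet polymerase ribozyme's subunits were each mutagenized into PCR-built libraries and transcribed. Every library was selected once, in triplicate, by annealing with a biotinylated primer, the partner subunit and triplets, incubating frozen at −7 °C, gel-excising extended constructs, capturing on streptavidin beads and running RT-PCR. Input and output libraries were Illumina-sequenced, with genotypes kept only at ≥10 input reads and ≥1 read per output. Fitness, from inverse-variance-weighted replicate averages, is the base-2 logarithm of genotype enrichment over wild-type enrichment.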
In the case of C3A G69U G71A A75U A103U C124G, the “polymerase ribozyme fitness (log ratio)” value is -4.96.
On to C3A C34A G45C C114U, for which the “polymerase ribozyme fitness (log ratio)” value is -6.33.
With C3A C102U the figure was -2.94; with C3U C40U U78C G113A G120A C123A, -2.82.
With C3U C12A C13A C49U C72G C99U U116C the figure was -6.31.
With C3G U129C the figure was -1.37; with C3A U32C G69A G120A, -3.63.
For the variant C3A G57U A75C C85G U112A C123U, the “polymerase ribozyme fitness (log ratio)” value was -1.77.
As to C3A U14G G69U C70U U106C, the “polymerase ribozyme fitness (log ratio)” value was -4.86.
With C3U A27U the figure was -4.17; with C3U A27G, -2.38; with C3U G48A C97A, -5.8.
For C3A G51A, the “polymerase ribozyme fitness (log ratio)” value was -4.19.
With C3A C73U C79G A119G C123A the figure was 0.0633; with C3U C11U U54G, -1.05.
For the variant C3G A50U C94G, the “polymerase ribozyme fitness (log ratio)” value was -4.4.
Turning to C3U G17U, the “polymerase ribozyme fitness (log ratio)” value is -3.11.
With C3U G17A the figure was -3.24; with C3U A5G C8G C11G C73U C99A U109A G120A, -5.15.
As to C3G G42U C99U C115G A121G, the “polymerase ribozyme fitness (log ratio)” value was -5.96.
With C3U C4G, the “polymerase ribozyme fitness (log ratio)” value was -2.81.
Consider C3G C8A A37U A111G G120A U125C, for which the “polymerase ribozyme fitness (log ratio)” value was -3.58.
On to C3U C20G C53A C97U U109A, for which the “polymerase ribozyme fitness (log ratio)” value was -3.06.
As to C3U C28U A41G A43U A46C U92C C94U C124U, the “polymerase ribozyme fitness (log ratio)” value was -4.65.
Regarding C3G G61U C104A, the “polymerase ribozyme fitness (log ratio)” value is -3.47.
With C3U C49A A84C C104U G120U, the “polymerase ribozyme fitness (log ratio)” value was -0.46.
With C3U C53G C89G the figure was -1.41.
On to C3U C89A, for which the “polymerase ribozyme fitness (log ratio)” value was -2.23.
Turning to C3U C89U, the “polymerase ribozyme fitness (log ratio)” value was -0.863.
In the case of C3U A6U G48A C62U C115U, the “polymerase ribozyme fitness (log ratio)” value is -2.86.
With C3A G10U U129C the figure was -1.94; with C3G C82U, -1.74.
Consider C3U A6U G45U C72G C79G C114A, for which the “polymerase ribozyme fitness (log ratio)” value was -5.66.
For the variant C3U C85U, the “polymerase ribozyme fitness (log ratio)” value is -1.43.
With C3A C56U G61U G113U G120U U126C, the “polymerase ribozyme fitness (log ratio)” value is -5.49.
In the case of C3U A74U C101U G113A C123G, the “polymerase ribozyme fitness (log ratio)” value was -1.18.
With C3G C4G U7C C53A C123U the figure was 1.4.
With C3A C72A C88G U92G G127U the figure was -2.7; with C3G C8G G117A G120A G135U, -1.6.
On to C3U G44U G45U G63U C88A, for which the “polymerase ribozyme fitness (log ratio)” value was -2.78.
Consider C3U A37U A84C, for which the “polymerase ribozyme fitness (log ratio)” value is -0.656.
With C3U A105U the figure was -1.94.
Take C3A C22G A37G G71A A111G: the “polymerase ribozyme fitness (log ratio)” value is -6.05.
With C3G C53G C86G C94U U106G G120A the figure was -5.63; with C3A G36A G71C C123G, -1.87; with C3G G47C, -3.72.
C3U C56U G77C: the “polymerase ribozyme fitness (log ratio)” value is -1.42.
As for C3U G58A C101G, the “polymerase ribozyme fitness (log ratio)” value was -2.57.
On to C3G C8G U32C C115G, for which the “polymerase ribozyme fitness (log ratio)” value is -2.01.
For C3U C8A C20U C53U G58A G77A A90G C101U, the “polymerase ribozyme fitness (log ratio)” value was -3.06.
In the case of C3U A26U G48A U130G, the “polymerase ribozyme fitness (log ratio)” value was -5.25.
With C3U C28U the figure was -2.28; with C3G U59G C88U C115A, -2.65.
Regarding C3U C12A U21C G36A G63U, the “polymerase ribozyme fitness (log ratio)” value is -3.34.
As for C3U C70U, the “polymerase ribozyme fitness (log ratio)” value was -0.813.
With C3U C70G the figure was -2.84; with C3A C123G, 0.176; with C3A C123U, -1.48.
C3A C123A: the “polymerase ribozyme fitness (log ratio)” value is -1.18.
Regarding C3A G39A C104U C115U, the “polymerase ribozyme fitness (log ratio)” value was -2.58.
On to C3U C12U G63A C89G, for which the “polymerase ribozyme fitness (log ratio)” value is -3.24.
In the case of C3U C13A, the “polymerase ribozyme fitness (log ratio)” value was -1.28.
With C3A G17U the figure was -4.27.
As to C3G C70U, the “polymerase ribozyme fitness (log ratio)” value is -2.07.
As to C3G G63U, the “polymerase ribozyme fitness (log ratio)” value was -2.85.
With C3G G63C, the “polymerase ribozyme fitness (log ratio)” value is -2.64.
With C3U G60A U92A the figure was -3.06.
With C3A G93A A95G the figure was -2.11; with C3U A27C G58C C64A G93U C101A G113A C115G, -7.47.
C3U G47A C49G G69A: the “polymerase ribozyme fitness (log ratio)” value is -4.22.
Turning to C3U G45U, the “polymerase ribozyme fitness (log ratio)” value is -1.13.
Consider C3G A29U G71A A119G, for which the “polymerase ribozyme fitness (log ratio)” value is -2.72.
For the variant C3A C34U C79U C114A C124G G128U, the “polymerase ribozyme fitness (log ratio)” value is -4.76.
On to C3G U7G G17C, for which the “polymerase ribozyme fitness (log ratio)” value was -3.73.
With C3A U9G G61C G113C the figure was -4.85.
With C3U C13U C70U G128U the figure was -1.99; with C3U A27U G61A, -3.78; with C3U A27U G61U, -2.61.
As for C3U C12A A46U, the “polymerase ribozyme fitness (log ratio)” value is -1.98.
With C3A C15G C72G G117C A119U the figure was -0.76.
Consider C3U A91U C115U, for which the “polymerase ribozyme fitness (log ratio)” value is -1.86.
Turning to C3G C88U U106C, the “polymerase ribozyme fitness (log ratio)” value was -2.72.
In the case of C3U G44C A46U G110A, the “polymerase ribozyme fitness (log ratio)” value is -2.98.
On to C3G A5U G60C A90G, for which the “polymerase ribozyme fitness (log ratio)” value was -1.39.
C3U C22G: the “polymerase ribozyme fitness (log ratio)” value was -3.12.
With C3U C22U the figure was -3.6; with C3G G110U, -2.82.
For the variant C3G U14A C20A G42U G61U G117A U131G G135C, the “polymerase ribozyme fitness (log ratio)” value is -3.96.
Consider C3G G36A G39C C53U A121C, for which the “polymerase ribozyme fitness (log ratio)” value was -2.59.
On to C3G G61A A90G C99U, for which the “polymerase ribozyme fitness (log ratio)” value is -3.39.
With C3A C89A the figure was -2.07; with C3U G44U C73G U125A, -2.29.
With C3A U7G U32C G93C A111C the figure was -1.66; with C3G C73U, -2.12.
Consider C3U G39A C40U G60C C94A, for which the “polymerase ribozyme fitness (log ratio)” value is -2.98.
Regarding C3U A46U, the “polymerase ribozyme fitness (log ratio)” value is -1.57.
For the variant C3G C13U G63U A111C, the “polymerase ribozyme fitness (log ratio)” value is -2.54.
With C3G G44A G47A C86G G120A, the “polymerase ribozyme fitness (log ratio)” value was -4.34.
With C3A G10U the figure was -1.63; with C3A C20U U38A G61A C82A G110A G127A, -6.34; with C3U C8U A105G, -2.67.
As for C3U G52U G57U C82A G122A, the “polymerase ribozyme fitness (log ratio)” value is -3.12.
With C3A C102U A121G the figure was -0.526; with C3U C53A G71A U78A, -0.343.
With C3G A5G U112C the figure was -0.649; with C3U C31G G120C, -6.61.
With C3U C49A U92A G113A the figure was -2.63; with C3U C11U G48A G117C C123G U129C U133C, -2.05.
For the variant C3U A37G C49G G69A C73U, the “polymerase ribozyme fitness (log ratio)” value is -3.7.
Regarding C3U C13A G39U C53A C56U G120U, the “polymerase ribozyme fitness (log ratio)” value was -0.266.
Turning to C3U C104U, the “polymerase ribozyme fitness (log ratio)” value is -0.0507.
With C3U C104A the figure was -2.21; with C3U G45C G61A, 0.0995; with C3U C22A G36U G71C A84U C123A, -5.28.
With C3U C86U C101G the figure was -1.68.
With C3U C102U C114G C124G the figure was -4.14.
On to C3U A46U C73A U87A, for which the “polymerase ribozyme fitness (log ratio)” value is -0.663.
Regarding C3A C34A, the “polymerase ribozyme fitness (log ratio)” value is -3.91.
With C3G C12G C40A the figure was -3.27; with C3A G48A A84G, -1.29; with C3U G48A C72U U129G, -4.31.
Take C3U G36C G58C U112G: the “polymerase ribozyme fitness (log ratio)” value is -0.836.
As to C3U C11U G71A A119G, the “polymerase ribozyme fitness (log ratio)” value was -0.255.
Turning to C3A C62G, the “polymerase ribozyme fitness (log ratio)” value was -2.38.
With C3A C62U the figure was -1.99; with C3G A111C, -1.69.
For C3G C11G G19U G120A, the “polymerase ribozyme fitness (log ratio)” value is -3.18.
Regarding C3G C49U C72U U131A, the “polymerase ribozyme fitness (log ratio)” value was -4.85.
C3U C94G C114A U125A: the “polymerase ribozyme fitness (log ratio)” value is -4.28.
With C3U C72U C76U C85U U116G C124U U129C the figure was -6.12; with C3U G57U G69A, -3.04; with C3G C13A A95C, -4.35.
With C3G C11A C12A the figure was -3.85; with C3A G10A G44U, -3.54; with C3U C86G, -2.21.
With C3A G61U the figure was -1.07; with C3U C53U C73U C88U, -0.301.
For the variant C3U G58C, the “polymerase ribozyme fitness (log ratio)” value was -0.467.
For the variant C3U G58A, the “polymerase ribozyme fitness (log ratio)” value is -0.199.
Consider C3U C11U G39C G71A A119G, for which the “polymerase ribozyme fitness (log ratio)” value is -0.917.
As to C3A U21A G120C, the “polymerase ribozyme fitness (log ratio)” value is -1.39.
With C3U G48U the figure was -0.574.
With C3U G48A the figure was -1.92; with C3A U133A, -1.44.
With C3G C13A A18G G25U G63A A111C A118G the figure was -6.44; with C3U C70U G113C, -3.44; with C3A C115U U125A U129G, -5.92.
Turning to C3U C15A U81A U92G C115U U125G, the “polymerase ribozyme fitness (log ratio)” value is -5.92.
With C3A U7G G10A C49G C104U G110C C124U, the “polymerase ribozyme fitness (log ratio)” value was -4.49.
With C3G C40G the figure was -1.82; with C3G G17U A50U U54A A74G A121C G135U, -4.33.
With C3U A66U the figure was -1.8; with C3G C40G A121G U130G, 0.237; with C3U G61A, -0.131.
With C3G C15A the figure was -5.49; with C3U G42U C56G, -2.49.
Regarding C3U C20A, the “polymerase ribozyme fitness (log ratio)” value is -2.93.
With C3U C8A A16G A43C C79A C88U C124A U125A U132C the figure was -3.17; with C3G C8A G113C G127C, -2.92.
For C3G U7A C40A G44A A111U, the “polymerase ribozyme fitness (log ratio)” value is -5.51.
As to C3U C40A C56U G120A, the “polymerase ribozyme fitness (log ratio)” value was -0.0248.
As for C3U C11U G42C C56A A74C A105U G120C, the “polymerase ribozyme fitness (log ratio)” value is -6.23.
With C3G G47U G93A the figure was -4.99.
With C3G U7A G63C A95C the figure was -2.41; with C3U C101A G117U G135U, -4.63.
With C3A U87A C94U U106G C115U G120C the figure was -5.04; with C3G U78A, -2.46.
